This note sets out measurements from the Human Domainome abundance scans (Beltran et al. 2025).

± gives the uncertainty stated by the source.

B1: POU domain, class 2, transcription factor 2, residues 200 to 269; numbered along this chain, P09086 (parent)
chain: LEELEQFARTFKQRRIKLGFTQGDVGLAMGKLYGNDFSQTTISRFEALNLSFKNMCKLKPLLEKWLNDAE

The variants in this data set derive from B1. Description: abundance fitness (aPCA) (normalised: wild type 0, dead -1); higher = more abundant; growth selection in yeast, the domain comes from the species named. The note with it: Homo sapiens.
Take LEELEQFARTFKQRRIKLGFTQGDVGLAMGKLYGNDFSQTTISRFEALNLSFKWMCKLKPLLEKWLNDAE [N54W]: the abundance fitness is -0.081 ± 0.056. On to LEELEQFARTFKQRRIKLGFTQGDVGLAMGKLYGNDFSQTTISRFEALNLSFKMMCKLKPLLEKWLNDAE [N54M], for which the abundance fitness is 0.103 ± 0.067. The result for LEELEQFARTFKQRRIKLGFTQGDVGLAMGKLYGNDFSQTTISRFEALNLSFKRMCKLKPLLEKWLNDAE [N54R] reads -0.005 ± 0.042; that for LEELEQFARTFKQRRIKLGFTQGDVGLAMGKLYGNDFSQTTISRFEALNLSFKTMCKLKPLLEKWLNDAE [N54T], 0.023 ± 0.09; that for LEELEQFARTFKQRRIKLGFTQGDVGLAMGKLYGNDFSQTTISRFEALNLSFKNHCKLKPLLEKWLNDAE [M55H], -0.164 ± 0.075. As for LEELEQFARTFKQRRIKLGFTQGDVGLAMGKLYGNDFSQTTISRFEALNLSFKNICKLKPLLEKWLNDAE [M55I], the figure is -0.175 ± 0.061; as for LEELEQFARTFKQRRIKLGFTQGDVGLAMGKLYGNDFSQTTISRFEALNLSFKNDCKLKPLLEKWLNDAE [M55D], -0.435 ± 0.078. The result for LEELEQFARTFKQRRIKLGFTQGDVGLAMGKLYGNDFSQTTISRFEALNLSFKNVCKLKPLLEKWLNDAE [M55V] reads -0.142 ± 0.033. As to LEELEQFARTFKQRRIKLGFTQGDVGLAMGKLYGNDFSQTTISRFEALNLSFKNYCKLKPLLEKWLNDAE [M55Y], the abundance fitness is -0.135 ± 0.071. With LEELEQFARTFKQRRIKLGFTQGDVGLAMGKLYGNDFSQTTISRFEALNLSFKNACKLKPLLEKWLNDAE [M55A], the abundance fitness is -0.022 ± 0.023. Consider LEELEQFARTFKQRRIKLGFTQGDVGLAMGKLYGNDFSQTTISRFEALNLSFKNGCKLKPLLEKWLNDAE [M55G], for which the abundance fitness was -0.097 ± 0.029. As for LEELEQFARTFKQRRIKLGFTQGDVGLAMGKLYGNDFSQTTISRFEALNLSFKNFCKLKPLLEKWLNDAE [M55F], the figure is -0.127 ± 0.06.

For the variant LEELEQFARTFKQRRIKLGFTQGDVGLAMGKLYGNDFSQTTISRFEALNLSFKNECKLKPLLEKWLNDAE [M55E], the abundance fitness was -0.512 ± 0.049.

In the case of LEELEQFARTFKQRRIKLGFTQGDVGLAMGKLYGNDFSQTTISRFEALNLSFKNLCKLKPLLEKWLNDAE [M55L], the abundance fitness is -0.021 ± 0.027. Regarding LEELEQFARTFKQRRIKLGFTQGDVGLAMGKLYGNDFSQTTISRFEALNLSFKNNCKLKPLLEKWLNDAE [M55N], the abundance fitness was -0.463 ± 0.078.

In the case of LEELEQFARTFKQRRIKLGFTQGDVGLAMGKLYGNDFSQTTISRFEALNLSFKNWCKLKPLLEKWLNDAE [M55W], the abundance fitness was -0.24 ± 0.037.

With LEELEQFARTFKQRRIKLGFTQGDVGLAMGKLYGNDFSQTTISRFEALNLSFKNRCKLKPLLEKWLNDAE [M55R], the abundance fitness is -0.502 ± 0.028.

Consider LEELEQFARTFKQRRIKLGFTQGDVGLAMGKLYGNDFSQTTISRFEALNLSFKNTCKLKPLLEKWLNDAE [M55T], for which the abundance fitness is -0.213 ± 0.036.

Consider LEELEQFARTFKQRRIKLGFTQGDVGLAMGKLYGNDFSQTTISRFEALNLSFKNCCKLKPLLEKWLNDAE [M55C], for which the abundance fitness was -0.439 ± 0.13.

Regarding LEELEQFARTFKQRRIKLGFTQGDVGLAMGKLYGNDFSQTTISRFEALNLSFVNMCKLKPLLEKWLNDAE [K53V], the abundance fitness is -0.014 ± 0.035.

Consider LEELEQFARTFKQRRIKLGFTQGDVGLAMGKLYGNDFSQTTISRFEALNLSFYNMCKLKPLLEKWLNDAE [K53Y], for which the abundance fitness was -0.092 ± 0.14. As to LEELEQFARTFKQRRIKLGFTQGDVGLAMGKLYGNDFSQTTISRFEALNLSFWNMCKLKPLLEKWLNDAE [K53W], the abundance fitness was -0.079 ± 0.058. Consider LEELEQFARTFKQRRIKLGFTQGDVGLAMGKLYGNDFSQTTISRFEALNLSFKNMCRLKPLLEKWLNDAE [K57R], for which the abundance fitness is -0.064 ± 0.031. For LEELEQFARTFKQRRIKLGFTQGDVGLAMGKLYGNDFSQTTISRFEALNLSFKNMCTLKPLLEKWLNDAE [K57T], the abundance fitness worked out at 0.024 ± 0.041. As for LEELEQFARTFKQRRIKLGFTQGDVGLAMGKLYGNDFSQTTISRFEALNLSFKNMCSLKPLLEKWLNDAE [K57S], the abundance fitness was -0.067 ± 0.049.

As to LEELEQFARTFKQRRIKLGFTQGDVGLAMGKLYGNDFSQTTISRFEALNLSFKNMCPLKPLLEKWLNDAE [K57P], the abundance fitness is -0.44 ± 0.064. As for LEELEQFARTFKQRRIKLGFTQGDVGLAMGKLYGNDFSQTTISRFEALNLSFKNMCMLKPLLEKWLNDAE [K57M], the figure is 0.01 ± 0.049. As to LEELEQFARTFKQRRIKLGFTQGDVGLAMGKLYGNDFSQTTISRFEALNLSFKNMCLLKPLLEKWLNDAE [K57L], the abundance fitness is -0.08 ± 0.041.

As to LEELEQFARTFKQRRIKLGFTQGDVGLAMGKLYGNDFSQTTISRFEALNLSFKNMCQLKPLLEKWLNDAE [K57Q], the abundance fitness was -0.023 ± 0.061. As for LEELEQFARTFKQRRIKLGFTQGDVGLAMGKLYGNDFSQTTISRFEALNLSFKNMCVLKPLLEKWLNDAE [K57V], the abundance fitness is -0.088 ± 0.042. With LEELEQFARTFKQRRIKLGFTQGDVGLAMGKLYGNDFSQTTISRFEALNLSFKNMCNLKPLLEKWLNDAE [K57N], the abundance fitness is -0.125 ± 0.091. Take LEELEQFARTFKQRRIKLGFTQGDVGLAMGKLYGNDFSQTTISRFEALNLSFKNMCDLKPLLEKWLNDAE [K57D]: the abundance fitness is -0.47 ± 0.17. The result for LEELEQFARTFKQRRIKLGFTQGDVGLAMGKLYGNDFSQTTISRFEALNLSFKNMCGLKPLLEKWLNDAE [K57G] reads 0.002 ± 0.031. Turning to LEELEQFARTFKQRRIKLGFTQGDVGLAMGKLYGNDFSQTTISRFEALNLSFKNMCALKPLLEKWLNDAE [K57A], the abundance fitness is -0.057 ± 0.042. As for LEELEQFARTFKQRRIKLGFTQGDVGLAMGKLYGNDFSQTTISRFEALNLSFKNMCYLKPLLEKWLNDAE [K57Y], the figure is -0.089 ± 0.11; as for LEELEQFARTFKQRRIKLGFTQGDVGLAMGKLYGNDFSQTTISRFEALNLSFKNMCCLKPLLEKWLNDAE [K57C], -0.058 ± 0.048.

Regarding LEELEQFARTFKQRRIKLGFTQGDVGLAMGKLYGNDFSQTTISRFEALNLSFKNMCILKPLLEKWLNDAE [K57I], the abundance fitness was -0.153 ± 0.085. Regarding LEELEQFARTFKQRRIKLGFTQGDVGLAMGKLYGNDFSQTTISRFEALNLSFKNMCELKPLLEKWLNDAE [K57E], the abundance fitness was -0.05 ± 0.062. With LEELEQFARTFKQRRIKLGFTQGDVGLAMGKLYGNDFSQTTISRFEALNLSFKNMCWLKPLLEKWLNDAE [K57W], the abundance fitness was -0.068 ± 0.048.
